From patent US20260209355 come the findings set out here.

The test system of series [1] is c-Myc conjugated and biotinylated human CD28 stalk region dimeric peptide (wild-type).
For series [2], the system named is quenched fluorogenic peptide of the human CD28 stalk region (WT).
Series [3] has as its system quenched fluorogenic peptide of the human CD28 stalk region with L145K.

Chain of c-Myc conjugated and biotinylated human CD28 stalk region dimeric peptide (wild-type) (chain, as listed by the source): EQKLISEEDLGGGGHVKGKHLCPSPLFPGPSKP

As for Recombinant human MMP-13, in series [1], the “intact peptide by anti-Myc ELISA (25 and 50 ng enzyme, 5 hours)” value was “the WT peptide was cleaved in a dose dependent manner”. Also, in series [2], the “fluorescence from cleavage of quenched fluorogenic peptide” value was “MMP-13 also cleaves the stalk domain, but at a much lower rate and efficiency than MMP-2”; the “fluorescence from cleavage of quenched fluorogenic peptide (2.5 µM peptide, 30 ng enzyme)” value is listed as “both enzymes efficiently cleaved the WT peptide”; the “fluorescence from cleavage of quenched fluorogenic peptide, titration of protease” value is given as “the cleavage of the peptide was dose dependent”. Besides, the “fluorescence from cleavage of quenched fluorogenic peptide (2.5 µM peptide, 30 ng enzyme)” value in series [3] is “both were completely incapable of cleaving the mutant peptide”.
